Reference: patent US11994512B2, “Single-cell genomic methods to generate ex vivo cell systems that recapitulate in vivo biology with improved fidelity” (Massachusetts Institute of Technology, priority 2018, dated 2024)

System: intracellular proteome of ENR+CD and ENR organoids
Experiment: LC-MS/MS TMT proteomics of ENR+CD versus ENR organoids
Type: cell-based, C57BL/6 mice
Details: for Average logFC: ENR+CD versus ENR organoids, sample pairs in aggregate (n=4, 2 technical replicates from two biological donors); for M1-1 Log2 Median Normalized / M1-2 Log2 Median Normalized / M2-1 Log2 Median Normalized / M2-2 Log2 Median Normalized: protein abundance ratio ENR+CD versus ENR organoids, LC-MS/MS TMT proteomics; for M1-1 Log2 Median Normalized: sample pair M1-1; for M1-2 Log2 Median Normalized: sample pair M1-2; for M2-1 Log2 Median Normalized: sample pair M2-1; for M2-2 Log2 Median Normalized: sample pair M2-2; for change: up = enriched in ENR+CD, down = enriched in ENR, FDR<0.05 and log fold change cut-off

Row | Molecule | Average logFC | M1-1 Log2 Median Normalized | M1-2 Log2 Median Normalized | M2-1 Log2 Median Normalized | M2-2 Log2 Median Normalized | change
1 | Q8CAB8 (protein, UniProt Q8CAB8 1-329, looked up, full-length) MELHILEHRLQVASVAKESIPLFTYGLIKLAFLSSKTRCKFFSLTETPEDYTIIVDEEGFLELPSSEHLSVADATWLALNVVSGGGSFSSSQPIGVTKIAKSVIAPLADQNISVFMLSTYQTDFILVRERDLPFVTHTLSSEFTILRVVNGETVAAENLSFTNGFVKPKMVQRPVIHPLSSPSNRFCVTSLDPDTLPAVATLLMDVMFYSNGVKDPMAASDDCGHIRFFSFSLIEGYISLVMDVQTQQRFPSHLLFTSASGELWKMVRIGGQPLGFDECGIVAQISEPLAAADIPAYYISTFKFDHALVPEENISGVIHALKVSQAGKH | 1.494 | 1.555 | 0.678 | 1.5715 | 1.494 | up
2 | Q8K354 (protein, UniProt Q8K354 1-277, looked up, full-length) MSSCSRVALVTGANKGIGFAITRDLCRKFSGDVVLTARDEARGRAAVQQLQAEGLSPRFHQLDIDDPQSIRALRDFLRKEYGGLNVLVNNAGIAFRMDDPTPFDIQAEVTLKTNFFATRNVCTELLPIMKPHGRVVNISSLQGLKALENCREDLQEKFRCDTLTEVDLVDLMKKFVEDTKNEVHEREGWPDSAYGVSKLGVTVLTRILARQLDEKRKADRILLNACCPGWVKTDMARDQGSRTVEEGAETPVYLALLPPDATEPHGQLVRDKVVQTW | −1.221 | −1.154 | −1.435 | −1.8555 | −0.441 | down
3 | Q8C5N3 (protein, UniProt Q8C5N3 1-908, looked up, full-length) MKSSVAHMKSSGHNRRETHSSYRRSSSPEDRYTEQERSPRDRGYSDYSRSDYERSRRGYSYDDSMESRSRDREKRRERERDADHRKRSRKSPSPDRSPARGGGQSSPQEEPTWKKKKDELDPLLTRTGGAYIPPAKLRMMQEQITDKSSLAYQRMSWEALKKSINGLINKVNISNISIIIQELLQENIVRGRGLLSRSVLQAQSASPIFTHVYAALVAIINSKFPQIGELILKRLILNFRKGYRRNDKQLCLTASKFVAHLINQNVAHEVLCLEMLTLLLERPTDDSVEVAIGFLKECGLKLTQVSPRGINAIFERLRNILHESEIDKRVQYMIEVMFAVRKDGFKDHPVILEGLDLVEEDDQFTHMLPLEDDYNPEDVLNVFKMDPNFMENEEKYKAIKKEILDEGDSDSNTDQGAGSSEDEEEEDEEEEGEDEEGGQKVTIHDKTEINLVSFRRTIYLAIQSSLDFEECAHKLLKMEFAESQTKELCNMILDCCAQQRTYEKFFGLLAGRFCMLKKEYMESFESIFKEQYDTIHRLETNKLRNVAKMFAHLLYTDSLPWSVLECIKLSEETTTSSSRIFVKIFFQELCEYMGLPKLNARLKDETLQPFFEGLLPRDNPRNTRFAINFFTSIGLGGLTDELREHLKNTPKVIVAQKPEAEQKKPALTSSSSESSSASDSSDSESDSSESSSESSSDASDSSSSSSTQSSTSGITAHSAKGTRKKRQGKARGEEVDKLARGHQALERRREGGREDQRHQEGRTERARSERRRAQNSRDADWRDPLAKHIDDRSHENSHSRVGNGREQGSHREPEDRHGEPKKRRERRDSFSENEKQRSRNQDSDNVRRKDRSKSRERSRRHSGHKGDDARCQNSAERRWEKPGRRPEQSRESKRSQDRRREKSPTTQK | −1.281 | −1.581 | −0.922 | −0.9735 | −1.648 | down
4 | Q8CGK7 (protein, UniProt Q8CGK7 1-381, looked up, full-length) MGCLGNSSKTAEDQGVDEKERREANKKIEKQLQKERLAYKATHRLLLLGAGESGKSTIVKQMRILHVNGFNPEEKKQKILDIRKNVKDAIVTIVSAMSTIIPPVPLANPENQFRSDYIKSIAPITDFEYSQEFFDHVKKLWDDEGVKACFERSNEYQLIDCAQYFLERIDSVSLVDYTPTDQDLLRCRVLTSGIFETRFQVDKVNFHMFDVGGQRDERRKWIQCFNDVTAIIYVAACSSYNMVIREDNNTNRLRESLDLFESIWNNRWLRTISIILFLNKQDMLAEKVLAGKSKIEDYFPEYANYTVPEDATPDAGEDPKVTRAKFFIRDLFLRISTATGDGKHYCYPHFTCAVDTENIRRVFNDCRDIIQRMHLKQYELL | −1.357 | −1.028 | −1.1 | −1.4805 | −1.82 | down
5 | Q8CFC7 (protein, UniProt Q8CFC7 1-668, looked up, full-length) MWHEARKHERKLRGMMVDYKKRAERRREYYEKIKKDPAQFLQVHGRACKVHLDSAVALAAESPVNMMPWQGDTNNMIDRFDVRAHLDHIPDYTPPLLTTISPEQESDERKCNYERYRGLVQNDFAGISEEQCLYQIYIDELYGGLQRPSEDEKKKLAEKKASIGYTYEDSTVAEVEKVAEKPEEEESPAEEESNSDEDEVIPDIDVEVDVDELNQEQVADLNKQATTYGMADGDFVRMLRKDKEEAEAIKHAKALEEEKAMYSGRRSRRQRREFREKRLRGRKISPPSYARRDSPTYDPYKRSPSESSSESRSRSRSPSPGREEKITFITSFGGSDEEAAAAAAAAAASGAAPGKPPAPPQTGGPAPGRNASTRRRSSSSSASRTSSSRSSSRSSSRSRRGYYRSGRHARSRSRSWSRSRSRSRRYSRSRSRGRRHSDGGSRDGHRYSRSPARRGGYVPRRRSRSRSRSGDRYKRGARGPRHHSSSHSRSSWSLSPSRSRSVTRSGSRSQSRSRSRSQSHSQSQSHSPSPPREKLTRPAASPAVGEKLKKTEPAAGKETGAAKPKLTPQERLKLRMQKALNRQFKADKKAAQEKMIQQEHERQEREDELRAMARKIRMKERERREKEREEWERQYSRQSRSPSPRYSREYSSSRRRSRSRSRSPHYRH | −1.139 | −1.219 | −0.633 | −0.8625 | −1.84 | down
6 | Q8C2E4 (protein, UniProt Q8C2E4 1-695, looked up, full-length) MDLLRLSRLFSGPRPIGLSVLQHLDLVGSTRWTGGREGPARLRAAFCGSSSPLPLGSGNQKEMSSLCSDSSKLSTVAPQEEAEEESFGSLSGKFSSRRIFHKSTAQLYNLQLKEQGGEEEELEPRPWRGRRNTQYWYFFQCKRLIKEGKLAEALDLFERQMLKEERLQPLECNYTVLIGGCGRVGYLKKAFRLFNDMKKRDLEPSDATYTALFNVCAESPWKDSALQSALKLRQQLQARNFQLNLKTYHALLKVAAKCADLRLCLDVFKEIIQRGHAVTEETFCFLLVGCIQDKKTGFRQAMQVWRQMLSLGIKPSRHGYNLLLEAARDCGLGDPEVASRLLLTSQEETILLPPPKGRHMAGRKVQAKTVHGVSLRHVEALERQLFLEPSQKLEGPPALPEARVTSRTQPEVETTAEPGHTVALTPLASKPTHLELEVSLLSLGTLSPAVVSFGTVATPADRLALMGGLEGFLGKMTEHGLQPDIKTLTLLAEVVEPGSTAESSLLSVLDRHRVEADVTFFNTLIRKKSKLGDLEGAKALLPILAKKGIVPNLRTFCNLAIGCHRPRDGMQLLADMKKSQVSPNIHIYSTLINAALKKLDYTYLISILKDMRQNSVPVNEVVVRQLEFAAEYPPTFDRYKGKNTYLEKIDGFRAYYKQWLKAMPAEEAPHPWQEFQNKPVGDQDTTDKAGGLRDG | −1.79 | −1.411 | −1.637 | −1.8825 | −2.231 | down
7 | Q8CIV3 (protein, UniProt Q8CIV3 1-451, looked up, full-length) MLRLCFFISFMCLVKSDTDETCPSFTRLSFHSAVVGTGLSVRLMLYTQRDQTCAQIINSTALGSLNVTKKTTFIIHGFRPTGSPPVWIEELVQSLISVQEMNVVVVDWNRGATTVIYPHASSKTRQVASILKEFIDQMLVKGASLDNIYMIGVSLGAHIAGFVGESYEGKLGRVTGLDPAGPLFNGRPPEERLDPSDALFVDVIHSDTDALGYKEALGHIDFYPNGGLDQPGCPKTIFGGIKYFKCDHQMSVYLYLASLQNNCSITAYPCDSYRDYRNGKCVSCGAGQIVPCPRVGYYADSWKEYLWDRDPPMTKAFFDTAETKPYCMYHYFVDIVSWNKSVRRGFITIKLRGEDGNITESKIDHEPSAFEKYHQVSLLARFNRDLDKVAEISLLFSTGSVVGPKYKLRVLQMKLRSLAHPDRPHLCRYDLVLMENVETSFQPILCSQQQM | 1.179 | 1.6 | 0.988 | 0.9025 | 1.225 | up
8 | Q8K023 (protein, UniProt Q8K023 1-323, looked up, full-length) MNSKIQKIELNDGHSIPVLGFGTYATEEHLKKKSMESTKIAIDVGFCHIDCSHLYQNEEEIGQAILSKIEDGTVKREDIFYTSKLWSTSHRPELVRPSLENSLRKLNLDYVDLYLIHFPVSLKPGNELLPKDEHGNLIFDTVDLCDTWEAMEKCKDAGLAKSIGVSNFNRRQLEMILNKPGLKYKPVCNQVECHLYLNQSKLLAYCKMNDIVLVAYGALGTQRYKYCINEDTPVLLDDPVLCAMAKKYKRTPALIALRYQLDRGIVALAKSFNEERIRENMQVFDFQLASDDMKILDGLDRNLRYFPADMFKAHPNFPFFDEY | −1.451 | −1.063 | −0.99 | −1.9945 | −1.758 | down
